# Experimental data as given in the supplement of paper PMC7877785.
# ± gives the uncertainty stated by the source.
# Assay: self-splicing fitness, log relative to wild type (ln ratio); higher = more splicing; Tetrahymena group I intron in knt gene, E. coli kanamycin selection, DiMSum; sequences stand for … in CUCUCU…GGAGGGAAAAGUUAUCAGGCAUGCACCUGGUAGCUAGUCUUUAAACCAAUAGAUUGCAUCGGUUUAAAAGGCAAGACCGUCAAAUUGCGGGAAAGGGGUCAACAGCCGUUCAGUACCAAGUCUCAGGGGAAACUUUGAGAUGGCCUUGCAAAGGGUAUGGUAAUAAGCUGACGGACAUGGUCCUAACCACGCAGCCAAGUCCUAAGUCAACAGAUCUUCUGUUGAUAUGGAUGCAGUUCACAGACUAAAUGUCGGUCGGGGAAGAUGUAUUCUUCUCAUAAGAUAUAGUCGGACCUCUCCUUAAUGGGAGCUAGCGGAUGAAGUGAUGCAACACUGGAGCCGCUGGGAACUAAUUUGUAUGCGAAAGUAUAUUGAUUAGUUUUGGAGUACUCGUGGUCG
# Outline: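 The eight P1ex-region nucleotides of an intron in the knt kanamycin-resistance gene on pET-22b(+) were all randomised and the library put into E. coli BL21(DE3). Six replicate transformations were grown overnight at 37°C or 30°C on LB agar with or without 25 μg/mL kanamycin, together with 100 μg/mL carbenicillin, 50 μM IPTG and 0.2% rhamnose. Colonies were pooled and amplicon-sequenced on an Illumina HiSeq 2500. Fitness from DiMSum is the error-weighted combination of wild-type-normalised replicate fold changes, kanamycin over none.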
Sequence,self-splicing fitness (ln) (30 °C),self-splicing fitness (ln) (37 °C)
GGACAGCAAUAUUACGAUUC,-0.338 ± 0.063,0.353 ± 0.078
GGACAGCAAUAUUACGCACA,-0.778 ± 0.09,0.0888 ± 0.1
GGACAGCAAUAUUACGCAGG,-1.45 ± 0.1,-0.578 ± 0.11
GGACAGCAAUAUUACGCCCG,-0.653 ± 0.24,-0.591 ± 0.28
GGACAGCAAUAUUACGCCGU,-4.23 ± 0.46,-3.05 ± 0.26
GGACAGCAAUAUUACGCGCC,-2.93 ± 0.2,
GGACAGCAAUAUUACGCGGA,-0.693 ± 0.081,0.416 ± 0.074
GGACAGCAAUAUUACGCGUU,-3.68 ± 0.16,-2.62 ± 0.2
GGACAGCAAUAUUACGGCAA,-1.32 ± 0.12,-0.645 ± 0.12
GGACAGCAAUAUUACGGCCA,-0.721 ± 0.077,-0.225 ± 0.1
GGACAGCAAUAUUACGGGCU,-1.89 ± 0.14,-0.458 ± 0.13
GGACAGCAAUAUUACGGGGG,-2.84 ± 0.13,-3.18 ± 0.22
GGACAGCAAUAUUACGUAAU,-0.0161 ± 0.056,-0.0127 ± 0.07
GGACAGCAAUAUUACGUAGA,-0.242 ± 0.08,-0.126 ± 0.091
GGACAGCAAUAUUACGUCUA,-0.35 ± 0.081,-0.114 ± 0.097
GGACAGCAAUAUUACGUGCC,-3.78 ± 0.19,-2.02 ± 0.21
GGACAGCAAUAUUACGUUAU,-0.282 ± 0.046,0.102 ± 0.066
GGACAGCAAUAUUACGUUGC,-4.57 ± 0.24,-2.83 ± 0.18
GGAGAGCAAUAUUACGAAUU,-3.13 ± 0.49,-2.27 ± 0.4
GGAGAGCAAUAUUACGAGUU,-4 ± 0.35,
GGAGAGCAAUAUUACGAUGC,-2.8 ± 0.33,-0.975 ± 0.22
GGAGAGCAAUAUUACGCAAG,,-3.71 ± 0.46
GGAGAGCAAUAUUACGCUUG,-3.1 ± 0.16,-2.01 ± 0.21
GGAGAGCAAUAUUACGGAGG,-2.93 ± 0.48,-0.819 ± 0.23
GGAGAGCAAUAUUACGGCCA,-2.34 ± 0.36,-1.21 ± 0.35
GGAGAGCAAUAUUACGGGAA,-2.58 ± 0.33,-2.58 ± 0.38

Sequence,self-splicing fitness (ln) (30 °C),self-splicing fitness (ln) (37 °C)
GGAGAGCAAUAUUACGGGAU,-4.2 ± 0.36,-3.23 ± 0.35
GGAGAGCAAUAUUACGGGCG,-3.79 ± 0.29,-2.37 ± 0.26
GGAGAGCAAUAUUACGGGGC,-3.01 ± 0.27,-2.71 ± 0.44
GGAGAGCAAUAUUACGGGGG,,-1.49 ± 0.46
GGAGAGCAAUAUUACGGUCU,,-2.31 ± 0.48
GGAGAGCAAUAUUACGUAAC,-1.69 ± 0.11,-0.596 ± 0.15
GGAGAGCAAUAUUACGUAGU,-1.91 ± 0.19,-2.15 ± 0.3
GGAUAGCAAUAUUACGACCU,0.689 ± 0.32,0.93 ± 0.25
GGAUAGCAAUAUUACGCCAG,-2.63 ± 0.32,-0.526 ± 0.34
GGAUAGCAAUAUUACGCGCG,-1.25 ± 0.13,0.793 ± 0.15
GGAUAGCAAUAUUACGCUCU,-1.63 ± 0.26,
GGAUAGCAAUAUUACGGGGU,,-3.01 ± 0.35
GGAUAGCAAUAUUACGGGUU,-2.16 ± 0.096,-1.42 ± 0.12
GGAUAGCAAUAUUACGUAGC,-3.55 ± 0.2,-1.06 ± 0.16
GGAUAGCAAUAUUACGUCUA,-0.367 ± 0.087,-0.516 ± 0.088
GGAUAGCAAUAUUACGUGUG,-1.91 ± 0.12,-1.19 ± 0.14
GGAUAGCAAUAUUACGUUAC,-1.87 ± 0.12,-1.26 ± 0.15
GGCAAGCAAUAUUACGAAUA,-1.45 ± 0.079,-0.797 ± 0.083
GGCAAGCAAUAUUACGAGCU,-2.69 ± 0.18,-1.67 ± 0.23
GGCAAGCAAUAUUACGAGGG,-2.89 ± 0.13,-2.34 ± 0.14
GGCAAGCAAUAUUACGAUAG,-2.73 ± 0.19,-2.18 ± 0.14
GGCAAGCAAUAUUACGAUCG,-0.12 ± 0.054,-0.459 ± 0.066
GGCAAGCAAUAUUACGAUGC,-2.36 ± 0.11,-1.02 ± 0.12
GGCAAGCAAUAUUACGCAAC,-2.24 ± 0.12,-0.823 ± 0.1
GGCAAGCAAUAUUACGCAGA,-1.23 ± 0.15,-0.852 ± 0.16
GGCAAGCAAUAUUACGCCCA,-1.95 ± 0.15,-0.268 ± 0.12

Sequence,self-splicing fitness (ln) (30 °C),self-splicing fitness (ln) (37 °C)
GGCAAGCAAUAUUACGCUAA,-0.671 ± 0.089,0.1 ± 0.12
GGCAAGCAAUAUUACGCUCC,-2.93 ± 0.44,-1.07 ± 0.36
GGCAAGCAAUAUUACGCUUA,-0.449 ± 0.076,0.129 ± 0.1
GGCAAGCAAUAUUACGGACC,-1.77 ± 0.18,-0.606 ± 0.2
GGCAAGCAAUAUUACGGAGU,-2.62 ± 0.12,-0.542 ± 0.1
GGCAAGCAAUAUUACGGCCG,-1.09 ± 0.11,0.00962 ± 0.13
GGCAAGCAAUAUUACGGGGA,-3.51 ± 0.26,-1.31 ± 0.3
GGCAAGCAAUAUUACGGGUG,-0.914 ± 0.055,-0.195 ± 0.066
GGCAAGCAAUAUUACGUACA,-0.414 ± 0.071,0.296 ± 0.094
GGCAAGCAAUAUUACGUCUA,-0.593 ± 0.084,0.16 ± 0.085
GGCAAGCAAUAUUACGUGAU,-0.97 ± 0.078,-0.169 ± 0.092
GGCAAGCAAUAUUACGUGCC,,-1.47 ± 0.43
GGCAAGCAAUAUUACGUGUC,-2.42 ± 0.11,-3.08 ± 0.17
GGCCAGCAAUAUUACGAAUA,-3.4 ± 0.36,-2.71 ± 0.23
GGCCAGCAAUAUUACGACCA,-1.46 ± 0.1,-0.797 ± 0.11
GGCCAGCAAUAUUACGACUG,-0.744 ± 0.12,-0.348 ± 0.15
GGCCAGCAAUAUUACGAGUC,-2.16 ± 0.14,-1.24 ± 0.14
GGCCAGCAAUAUUACGCACG,-1.18 ± 0.07,-0.36 ± 0.082
GGCCAGCAAUAUUACGCAUU,-0.554 ± 0.05,0.109 ± 0.067
GGCCAGCAAUAUUACGCCAC,-4.58 ± 0.46,-1.8 ± 0.49
GGCCAGCAAUAUUACGCCUU,-2.04 ± 0.12,-0.815 ± 0.097
GGCCAGCAAUAUUACGCGGU,-3.63 ± 0.46,-2.53 ± 0.34
GGCCAGCAAUAUUACGCGUU,-0.164 ± 0.09,0.0494 ± 0.12
GGCCAGCAAUAUUACGCUAA,-0.606 ± 0.09,-0.303 ± 0.1
GGCCAGCAAUAUUACGCUGU,-1.74 ± 0.08,-1.37 ± 0.11
